Test results as given in the supplement of paper PMC9170038.

Test system: K4 kissing-loop RNA reporter
Assay: apparent KD of K4 kissing-loop reporter; higher = weaker reporter binding
Conditions: Eterna round: R107; input ligand: theophylline 20 uM
Procedure: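 RNA-MaP round R107: designed RNA switches with theophylline, tryptophan, arginine or FMN aptamers are transcribed on-chip within common flanks. They are titrated with a labelled K4 kissing-loop RNA reporter in RNA-MaP buffer (100 mM Tris pH 7.5, 80 mM KCl, 4 mM MgCl2), without ligand or with the indicated ligand. Median apparent KD per design.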
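Also: bound reporter read as fluorescence of individual clusters on recovered sequencing chips by microscopy, with normalized cluster intensities fitted with a binding model.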

| Sequence | apparent KD of K4 kissing-loop reporter [µM] |
| --- | --- |
| CCUAUCUCAUACGAUACCAGUCCGAGUGAUGUUCGAACAUAAAUUAGUUUGCCAUAUAAUGACCCUUGGCAGCGUAUGGGAUAGG [Ex Theophylline B K4 12] | 0.623 |
| UCCACGCUUAGAGGAUAUCGGAUUAGAGUGAUGUUCUAAAGAAGCCCAGUGAUGUUGGAUGGUAUACGAGAAGGCUGUGGCGUGU [Same State FMN B GF 4] | 0.371 |
| CUUGGAAGGACGGCCGCCACUCGACGGAGUGAUGUUCCGUGUGGGUAGCGCAGUGAUGUUGUGUCGAGGACCGGGUCCUAGGAAU [Exclusion Tryptophan B GF 28] | 0.16 |
| AAACUUGCAGUGAUGUUGCAAGUAGGUGAUACCAGCAUCGAAAGAUGCCCUUGGCAGCACCAACACUGUAAGUAAGUAUCACCAA [(H1)-(H2)-(T1)-(T2)-(H)'-(T)'_Design2] | 0.139 |
| UGGACCGCCUGAGGAUAUAGGGACGAGUGAUGUUCGUGGACCAGAGCCAGUGAUGUUGGGUUAUUUCUAGAAGGCGGGCGAACUU [Exclusion FMN B GF11] | 0.154 |
| GGGUUUGCCGGAAGGAGCGCACUAUGGAGUGAUGUUCCAUGACCGCACAGCUUGCGGUCAGUGCAGGUAGGUCGCCGGUAGCGUU [Maedzaus] | 0.271 |
| AGAUGGAAUAGAAGGAGCGGCGCCAGUGAUGUUGGAUGCCGCGGGUGAAUCAUGUCAUAGUGCCAGGUAGGUCGCUAUUUCAGCU [Beinveve] | 0.103 |
| AUGCUUUUAAUAACACUAUAUACAGCUGAAGGAGCGACAAUAAAGUCAGGUAGGUCGCAGAAUAGAUGAGUGAUGUUCAUUUUUA [#05 K4 Arginine A Exclusion] | 0.166 |

Same assay, conditions: Eterna round: R107; input ligand: tryptophan 2.4 mM

| Sequence | apparent KD of K4 kissing-loop reporter [µM] |
| --- | --- |
| AAUAAGGAGUGAUGUUCCAAGUGAUGUUAACGAGGACCGGUACGGCCGCCACUCGAUACGGCCGGAAAGUAAGAUAAACUACAAU [Same State - Tryptophan A (Freestyle 3)] | 0.0546 |
| UAUGAAGGUGGAGGAUAUUGAUUGAACCUUGGUCAGGAGUGAUGUUCCGGGAAGCCUUGGGUUCAUCGAGAAGGCCAAGGAUAGU [Extra 2] | 0.238 |
| GCCGUAGAUUGAAGGAGCGGACUUAUAGGUCUUAAGGAGUGAUGUUCCUGACACUCGGCGGUCCAGGUAGGUCGCAAUCUACGGC | 0.272 |
| UGACAUUGCUCAGAUACCAGACACGAGGAUCACCCGUGUGCCAAAACGUACUAAAUAAGUGUCCCUUGGCAGCUGAGCAAUGUCU [TheoBX 13] | 0.0478 |
| GCAUCAUGCUACGAUACCAGAAGUUCCCUUUAGUGUAGUGAUGUUGCAGAUAUUGCUUACUUCCCUUGGCAGCGUUUGACGGGUA [theeternabot_sameState_KL_Theo_B_35] | 0.155 |
| AAUGCAUUGUGAAGGAGCGCGUUAAGCAGUGAUGUUGCUUUUAUAUUUUUCAGUUUUAUAUCGCAGGUAGGUCGCACUUUGCAUA [JR_Nu_SSArginiB_Sub029] | 0.148 |
| UUAGGAGUGGAAGGAUAUCCUGGUGUGGGUGGUGUUAGUGAUGUUGGUGGUGCAGUGAUGUUGCGCGGAGAAGGUCCGGUGUUGA [BDazzled - #4 - Exc. FMN B] | 0.358 |
| UGACUGGACUGAAGGAGCGCGCGAGACAAAGUCUCGAACUGCUAGUGAUGUUAGCAAAUAACGCAGGUAGGUCGCAGUCUAGUCU [ArgBS 11 #SwitchBubble #StaticStem #DoubleMagnet] | 0.124 |
| AACUGUCAAGGCCAACAUUACUGAGGUGAUACCAGCAUCGAAAGAUGCCCUUGGCAGCACCGACUUGCAGUGAUGUUGCAAGUAA [BrourdMod 12 - Jieux - Exclusion - Theophylline A] | 0.287 |
| UGCCCGCGCGAAGGAUAUGAGAGCUUGUCUGUCCAGUGAUGUUGGAGGUUGGUGAUUUGCUAGGCGUCAGAAGGUCGAGCUUAUA [theeternabot_sameState_KL_FMN_B_14] | 0.133 |
| UAAGAGGACCACUACAAGAGUCCUCGAAUACGAGGACCGGUACGGCCGCCACUCGAUAACUUGUAGUGAUGUUGCAAGUAAGAAU [BrourdMod 2 - Jieux - Same State Tryptophan A] | 0.046 |
| UUGGCAGUGAUGUUGCCAGACAUCACCGAAGGAGCGGGCGAAAGCCCAGGUAGGUCGCGGUAGCGGAGUGAUUCUCCGCGAGGGC [Same State Arginine A GF 23] | 0.829 |
| GCAACAUUGGCAGGAUAUCCUUCUCAGUGAUGUUGAGGGUUCAGCUAACGAAAGUUAGUUGUACCGGGAGAAGGGCUAAUGUUGC [Omei KL FMN B SS A v8] | 1.24 |
| GCGGCGGGCCAAGGAUAUAUAUUGGAGUGAUGUUGUUCAUUUAUUUGAGCUAGUGAUGUUGGUCAGAUAGAAGGUGGCCCGCCGC [whbob_Ex_FMNB__2th216] | 0.0464 |
| CUAUAAGUGCCGAGUGAUGUUCGGCCAAUACGAGGACCGGUACGGCCGCCACUCGGUCAGUCGGUGCCCACCGGGCAUGGCUGAC [Ortima] | 0.113 |
| UAACUUGCAGUGAUGUUGCAAGAACUGGAUACCAGCAUGGAAACAUGCCCUUGGCAGCCAGAAGGUAUCCUCUUGCAUAGAUACU [Design3] | 0.192 |

| Sequence | apparent KD of K4 kissing-loop reporter [µM] |
| --- | --- |
| CACCAUGAAUUCUCUAGGAGUGAUGUUUUUCGAGGACCGGUACGGCCGCCACUCGGACGAGGACCGUGGGAGCGGCGAACCGACU [ddfgmullin] | 0.15 |
| AGACUUCACCGAAGGAGCGACGUAGCCUAGUGAUGUUAGGCACGAGAGAAAUCUCGUAUACGUCAGGUAGGUCGCGGUGAAGUCA [Omei KL Arginine B SS C v1] | 0.161 |
| UGUGUUUACCUGACUCAGUGAUGUUGAGAAGGAGCGUUCGAAAGAACAGGUAGGUCGCUCAACCUAAAUUCAGGUGAGCACUAAA | 0.322 |
| UGGUUCAAUACGGCCGCCACUGGUGAGUGAUGUUUACCGUCUAUAUCAUGUGUCGAGAGCGCUAUCAGGACCGGGUAGGGACCGU [theeternabot_exclusion_KL_Trp_B_42] | 0.458 |
| GGAUAGGAUAGAGGAUAUGGCUUACACAGAAAUAACUUGUUGUGUUUAUCCAUAGGGAGUGAUGUUCCAGAAGGCUGUCCUAUCG [MatMod 19 - Jieux - Exclusion - FMN B] | 0.161 |
| UUGCGGAGUGAUGUUUCGGGAUAUCGGGAAGGAGCGCCGAUAACGGCAGGUAGGUCGCCCGGUCCAGUGAUGUUGGGCAUGCAUU [Exclusion Arg A GF 23] | 0.171 |
| CUAUGAGUGAUGUUCGUAGGUUGGGCUUGGCAGGAUAUGGGAUCUUCCAGAAGGGCCGAUUCCGGCGAGUGAUGUUCGUUGGUCU [Exclusion FMN A GF30] | 0.0439 |
| CCUAUCUCAUACGAUACCAGUCCGAGUGAUGUUCGAACAUAAAUUAGUUUGCCAUAUAAUGACCCUUGGCAGCGUAUGGGAUAGG [Ex Theophylline B K4 12] | 0.522 |
| UCCACGCUUAGAGGAUAUCGGAUUAGAGUGAUGUUCUAAAGAAGCCCAGUGAUGUUGGAUGGUAUACGAGAAGGCUGUGGCGUGU [Same State FMN B GF 4] | 0.369 |
| CUUGGAAGGACGGCCGCCACUCGACGGAGUGAUGUUCCGUGUGGGUAGCGCAGUGAUGUUGUGUCGAGGACCGGGUCCUAGGAAU [Exclusion Tryptophan B GF 28] | 0.0777 |
| AAACUUGCAGUGAUGUUGCAAGUAGGUGAUACCAGCAUCGAAAGAUGCCCUUGGCAGCACCAACACUGUAAGUAAGUAUCACCAA [(H1)-(H2)-(T1)-(T2)-(H)'-(T)'_Design2] | 0.105 |
| UGGACCGCCUGAGGAUAUAGGGACGAGUGAUGUUCGUGGACCAGAGCCAGUGAUGUUGGGUUAUUUCUAGAAGGCGGGCGAACUU [Exclusion FMN B GF11] | 0.146 |
| GGGUUUGCCGGAAGGAGCGCACUAUGGAGUGAUGUUCCAUGACCGCACAGCUUGCGGUCAGUGCAGGUAGGUCGCCGGUAGCGUU [Maedzaus] | 0.179 |
| AGAUGGAAUAGAAGGAGCGGCGCCAGUGAUGUUGGAUGCCGCGGGUGAAUCAUGUCAUAGUGCCAGGUAGGUCGCUAUUUCAGCU [Beinveve] | 0.0908 |
| AUGCUUUUAAUAACACUAUAUACAGCUGAAGGAGCGACAAUAAAGUCAGGUAGGUCGCAGAAUAGAUGAGUGAUGUUCAUUUUUA [#05 K4 Arginine A Exclusion] | 0.0769 |
